Test results: PMC9657779, “Regulatory Role of Sphingosine-1-Phosphate and C16:0 Ceramide, in Immunogenic Cell Death of Colon Cancer Cells Induced by Bak/Bax-Activation” (Cancers, 2022)

Molecular target: the molecule itself
Assay: non-reducing SDS-PAGE and Western blot; whole cell lysates of DLD-1 cells treated with ABT/AZD or MTX, with or without PF-543 (also thapsigargin, fumonisin B1; CerS6 knock-out cells), under non-reducing conditions, blotted for CRT; disulfide-linked dimer

B1: calreticulin (natural protein, human (endogenous in DLD-1), UniProt P27797 18-417, looked up)
chain: EPAVYFKEQFLDGDGWTSRWIESKHKSDFGKFVLSSGKFYGDEEKDKGLQTSQDARFYALSASFEPFSNKGQTLVVQFTVKHEQNIDCGGGYVKLFPNSLDQTDMHGDSEYNIMFGPDICGPGTKKVHVIFNYKGKNVLINKDIRCKDDEFTHLYTLIVRPDNTYEVKIDNSQVESGSLEDDWDFLPPKKIKDPDASKPEDWDERAKIDDPTDSKPEDWDKPEHIPDPDAKKPEDWDEEMDGEWEPPVIQNPEYKGEWKPRQIDNPDYKGTWIHPEIDNPEYSPDPSIYAYDNFGVLGLDLWQVKSGTIFDNFLITNDEAYAEEFGNETWGVTKAAEKQMKDKQDEEQRLKEEEEDKKRKEEEEAEDKEDDEDKDEDEEDEEDKEEDEEEDVPGQAKDEL
notes: calreticulin (CRT), the normally ER resident chaperone, endogenous in human colorectal DLD-1 cells; Seen as a disulfide-linked dimer on Western blots run under non-reducing conditions; also called CRT; ectoCRT; source: endogenous, DLD-1 whole cell lysate (RIPA)
- stoichiometry N: 2
